From paper PMC4705956 come the findings set out here.

The target in the data set is Asp93 (UniProt position 93, WARYADWLFTT). The experiment in a line: UV-vis. The settings on record: 298 K; 100 mM NaCl (Fig. 7 caption); the Methods state 4 M NaCl for UV-visible spectroscopy; Not stated for the titration; the Methods give 50 mM Tris-HCl for UV-visible samples; Folded, retinal-bound, detergent-solubilised. Light or dark adaptation is not stated.

What is called pKa is the pH at which an ionisable group is half protonated. Substance “Bacteriorhodopsin (HwBR) R82E mutant (Haloquadratum walsbyi; R82E)” had a pKa of 2.24.
“Bacteriorhodopsin (HwBR) (Haloquadratum walsbyi)” came in with a pKa of 1.97.
